Consider eleven molecules from article PMC8163081 (Science Advances, 2021).

The target in experiment [1] is hd-α-actinin-2 (human) (UniProt P35609). Briefly: SEC-MALS.
For experiment [2] the target is unchanged. Briefly: ITC. Background: ITC needs no label: the signal is the heat of the interaction.
For the next experiment, the target named is α-actinin-2 (human) (UniProt P35609). Briefly: ITC.
Experiment [3] deals with T1, α-actinin-2 (human, UniProt P35609 1-894). Briefly: SEC-MALS. A general note: Size exclusion chromatography separates by hydrodynamic size, large species first.
In experiment [4] the target is T1, α-actinin-2. Briefly: peptide or protein array.
The target in another experiment is rod-α-actinin-2 (human, UniProt P35609 274-746). Briefly: SEC-MALS.
The target of experiment [5] is human (nonmuscle) α-actinin-1 (human, UniProt P12814 1-892). Briefly: SEC-MALS.
Experiment [6] deals with T1, α-actinin-2. Briefly: ITC.
Experiment [7] addresses α-actinin-2-yellow fluorescent protein (YFP) (human, UniProt P35609 1-894). Briefly: FRET or BRET. A general note: In BRET a luciferase serves as donor, and the signal depends on an acceptor being close.

The Kd is a measure of binding affinity in units of concentration. A lower Kd goes with a tighter complex. The term stoichiometry N denotes the number of molecules, sites or subunits per partner or assembly.

Sequence of hd-α-actinin-2 (human) (P35609 19-894): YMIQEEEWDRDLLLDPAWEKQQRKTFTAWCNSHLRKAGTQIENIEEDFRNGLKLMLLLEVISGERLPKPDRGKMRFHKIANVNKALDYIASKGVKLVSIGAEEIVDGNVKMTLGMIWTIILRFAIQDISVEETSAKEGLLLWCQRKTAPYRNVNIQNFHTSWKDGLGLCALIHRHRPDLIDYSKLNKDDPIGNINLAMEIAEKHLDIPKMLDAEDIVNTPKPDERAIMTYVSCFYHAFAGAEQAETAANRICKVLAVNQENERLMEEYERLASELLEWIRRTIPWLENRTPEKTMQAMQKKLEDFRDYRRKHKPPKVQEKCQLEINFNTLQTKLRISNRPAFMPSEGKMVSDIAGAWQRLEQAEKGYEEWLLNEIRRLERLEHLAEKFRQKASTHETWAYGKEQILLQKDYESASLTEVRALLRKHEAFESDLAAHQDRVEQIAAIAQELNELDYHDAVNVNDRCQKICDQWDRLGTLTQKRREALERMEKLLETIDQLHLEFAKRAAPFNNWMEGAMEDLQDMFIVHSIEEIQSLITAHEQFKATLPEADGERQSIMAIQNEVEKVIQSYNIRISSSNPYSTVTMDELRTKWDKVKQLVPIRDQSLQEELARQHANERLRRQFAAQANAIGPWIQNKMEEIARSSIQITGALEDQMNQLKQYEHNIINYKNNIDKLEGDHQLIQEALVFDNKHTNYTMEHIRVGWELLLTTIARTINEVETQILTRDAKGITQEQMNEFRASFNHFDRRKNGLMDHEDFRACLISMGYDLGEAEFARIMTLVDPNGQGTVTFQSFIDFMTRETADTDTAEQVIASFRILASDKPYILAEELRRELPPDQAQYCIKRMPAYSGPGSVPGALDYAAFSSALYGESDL
T1 sequence (P35609 whole entry): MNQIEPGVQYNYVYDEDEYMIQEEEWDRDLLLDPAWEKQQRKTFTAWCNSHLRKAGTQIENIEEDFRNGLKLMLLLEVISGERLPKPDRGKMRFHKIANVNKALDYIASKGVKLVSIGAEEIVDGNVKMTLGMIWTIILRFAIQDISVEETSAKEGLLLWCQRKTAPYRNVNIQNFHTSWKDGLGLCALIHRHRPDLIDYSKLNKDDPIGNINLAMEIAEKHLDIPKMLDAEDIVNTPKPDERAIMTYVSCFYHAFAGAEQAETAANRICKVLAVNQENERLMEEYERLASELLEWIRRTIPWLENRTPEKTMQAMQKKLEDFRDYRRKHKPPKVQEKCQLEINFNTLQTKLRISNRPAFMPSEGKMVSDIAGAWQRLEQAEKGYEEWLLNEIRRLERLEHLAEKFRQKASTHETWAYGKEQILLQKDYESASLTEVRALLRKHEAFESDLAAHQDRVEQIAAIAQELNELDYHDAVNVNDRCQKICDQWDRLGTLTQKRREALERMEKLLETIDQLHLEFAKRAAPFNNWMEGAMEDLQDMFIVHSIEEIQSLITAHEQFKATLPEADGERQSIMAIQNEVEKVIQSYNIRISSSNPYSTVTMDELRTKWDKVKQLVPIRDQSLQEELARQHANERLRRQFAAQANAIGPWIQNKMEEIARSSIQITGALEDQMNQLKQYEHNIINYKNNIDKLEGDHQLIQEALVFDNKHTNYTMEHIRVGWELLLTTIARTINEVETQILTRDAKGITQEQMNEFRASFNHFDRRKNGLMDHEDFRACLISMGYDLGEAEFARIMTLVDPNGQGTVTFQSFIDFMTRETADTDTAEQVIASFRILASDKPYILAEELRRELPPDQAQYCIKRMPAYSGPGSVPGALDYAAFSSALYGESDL
Sequence of α-actinin-2 (human) (P35609 whole entry): as above
Sequence of α-actinin-2-yellow fluorescent protein (YFP) (P35609 whole entry): as above
Sequence of rod-α-actinin-2 (P35609 274-746): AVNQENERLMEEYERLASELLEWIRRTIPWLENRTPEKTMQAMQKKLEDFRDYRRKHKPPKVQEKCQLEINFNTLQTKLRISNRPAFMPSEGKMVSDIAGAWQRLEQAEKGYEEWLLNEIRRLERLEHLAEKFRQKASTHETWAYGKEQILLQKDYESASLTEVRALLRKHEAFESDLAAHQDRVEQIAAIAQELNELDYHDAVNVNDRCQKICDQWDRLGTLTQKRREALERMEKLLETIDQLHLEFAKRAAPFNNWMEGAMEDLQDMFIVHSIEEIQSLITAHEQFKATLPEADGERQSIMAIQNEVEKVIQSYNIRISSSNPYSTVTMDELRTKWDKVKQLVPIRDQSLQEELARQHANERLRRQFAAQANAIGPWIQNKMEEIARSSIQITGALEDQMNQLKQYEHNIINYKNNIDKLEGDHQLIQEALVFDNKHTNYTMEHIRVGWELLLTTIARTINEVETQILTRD
Sequence of human (nonmuscle) α-actinin-1 (P12814 whole entry): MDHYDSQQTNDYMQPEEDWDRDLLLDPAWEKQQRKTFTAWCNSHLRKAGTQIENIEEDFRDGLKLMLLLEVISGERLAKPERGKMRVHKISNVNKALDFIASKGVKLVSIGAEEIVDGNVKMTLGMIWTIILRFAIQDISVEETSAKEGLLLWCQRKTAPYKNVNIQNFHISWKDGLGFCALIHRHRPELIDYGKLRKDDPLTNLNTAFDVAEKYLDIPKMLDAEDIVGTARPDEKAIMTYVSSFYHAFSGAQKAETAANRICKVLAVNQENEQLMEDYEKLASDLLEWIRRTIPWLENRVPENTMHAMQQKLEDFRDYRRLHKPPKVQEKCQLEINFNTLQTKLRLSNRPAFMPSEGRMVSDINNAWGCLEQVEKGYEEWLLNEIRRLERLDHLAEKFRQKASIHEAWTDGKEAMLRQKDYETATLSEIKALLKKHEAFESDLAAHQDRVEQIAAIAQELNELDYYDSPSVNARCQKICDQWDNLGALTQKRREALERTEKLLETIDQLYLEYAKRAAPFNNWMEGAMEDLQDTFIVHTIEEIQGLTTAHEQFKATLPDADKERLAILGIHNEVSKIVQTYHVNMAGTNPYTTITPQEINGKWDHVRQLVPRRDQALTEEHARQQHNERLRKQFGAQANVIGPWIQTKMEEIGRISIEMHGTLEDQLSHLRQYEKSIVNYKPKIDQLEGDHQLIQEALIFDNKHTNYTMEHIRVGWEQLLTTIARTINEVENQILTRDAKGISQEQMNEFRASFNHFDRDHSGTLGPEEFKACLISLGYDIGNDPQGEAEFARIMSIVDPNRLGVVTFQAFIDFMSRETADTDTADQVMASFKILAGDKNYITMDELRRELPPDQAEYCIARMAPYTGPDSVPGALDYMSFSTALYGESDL

On to “Δ91-FATZ-1 (from UniProt Q9NP98 92-299) (domain or fragment)”, for which the stoichiometry N (Δ91-FATZ-1 per hd-α-actinin-2) in the experiment with hd-α-actinin-2 (human) [1] and in the experiment with hd-α-actinin-2 (human) [2] was 1 throughout. In the experiment with hd-α-actinin-2 (human) [2], this molecule yielded a Kd of 260 nM.
Regarding trx-Δ91-FATZ-1 (domain or fragment), in the experiment with α-actinin-2 (human), the Kd came out at 1500 nM and the stoichiometry N stood at 1.3.
In the experiment with α-actinin-2 (human), Δ91-FATZ-1-trx (domain or fragment) displayed a Kd1 (two-site binding model, first binding event) of 7.8 nM and a Kd2 (two-site binding model, second binding event) of 408 nM.

B1: FATZ-3 (natural protein, human, UniProt Q8TDC0 1-251, looked up)
chain: MIPKEQKGPVMAAMGDLTEPVPTLDLGKKLSVPQDLMMEELSLRNNRGSLLFQKRQRRVQKFTFELAASQRAMLAGSARRKVTGTAESGTVANANGPEGPNYRSELHIFPASPGASLGGPEGAHPAAAPAGCVPSPSALAPGYAEPLKGVPPEKFNHTAISKGYRCPWQEFVSYRDYQSDGRSHTPSPNDYRNFNKTPVPFGGPLVGGTFPRPGTPFIPEPLSGLELLRLRPSFNRVAQGWVRNLPESEEL
For the molecule B1, the “stoichiometry N” value with α-actinin-2 [3] is 2 FATZ molecules per α-actinin-2 dimer.
Regarding KYKSFNRTAMPYGGY (peptide, UniProt Q9NP98 217-231, looked up) [FATZ-1 peptide comprising residues 217 to 231 (peptide array)], the binding result with α-actinin-2 [4] is reported as “binds”.

B2: Δ91-FATZ-1 (domain or fragment, human, UniProt Q9NP98 92-299, looked up)
chain: PTVGGQLGTAGQGFSYSKSNGRGGSQAGGSGSAGQYGSDQQHHLGSGSGAGGTGGPAGQAGRGGAAGTAGVGETGSGDQAGGEGKHITVFKTYISPWERAMGVDPQQKMELGIDLLAYGAKAELPKYKSFNRTAMPYGGYEKASKRMTFQMPKFDLGPLLSEPLVLYNQNLSNRPSFNRTPIPWLSSGEPVDYNVDIGIPLDGETEEL
Take B2: the “stoichiometry N” value with rod-α-actinin-2 is 2 Δ91-FATZ-1 per rod-α-actinin-2 dimer; in the experiment with α-actinin-2 [3], 2 Δ91-FATZ-1 per α-actinin-2 dimer; in [5], 2 Δ91-FATZ-1 per α-actinin-1 (2:1 complex). Also, in the experiment with α-actinin-2 [6], the “dH (first binding event)” value is -26.5 kcal/mol.

B3: FATZ-2 (natural protein, human, UniProt Q9NPC6 1-264, looked up)
chain: MLSHNTMMKQRKQQATAIMKEVHGNDVDGMDLGKKVSIPRDIMLEELSHLSNRGARLFKMRQRRSDKYTFENFQYQSRAQINHSIAMQNGKVDGSNLEGGSQQAPLTPPNTPDPRSPPNPDNIAPGYSGPLKEIPPEKFNTTAVPKYYQSPWEQAISNDPELLEALYPKLFKPEGKAELPDYRSFNRVATPFGGFEKASRMVKFKVPDFELLLLTDPRFMSFVNPLSGRRSFNRTPKGWISENIPIVITTEPTDDTTVPESEDL
In the case of B3, the “stoichiometry N” value with α-actinin-2 [3] is 2 FATZ molecules per α-actinin-2 dimer.

B4: ECFP-tagged FATZ-2 (WT) (natural protein, human, UniProt Q9NPC6 1-264, looked up)
chain: MLSHNTMMKQRKQQATAIMKEVHGNDVDGMDLGKKVSIPRDIMLEELSHLSNRGARLFKMRQRRSDKYTFENFQYQSRAQINHSIAMQNGKVDGSNLEGGSQQAPLTPPNTPDPRSPPNPDNIAPGYSGPLKEIPPEKFNTTAVPKYYQSPWEQAISNDPELLEALYPKLFKPEGKAELPDYRSFNRVATPFGGFEKASRMVKFKVPDFELLLLTDPRFMSFVNPLSGRRSFNRTPKGWISENIPIVITTEPTDDTTVPESEDL
As for B4, the FRET ratio in experiment [7] was 0.087.
Take PKYKSFNRTAMPYGGYEKASKRMTF (peptide, UniProt Q9NP98 216-240, looked up) [LM2 peptide]: in the experiment with α-actinin-2 [6], binding was put at a Kd of 315 nM and the “stoichiometry N” value worked out at 1.9.

B5: FATZ-1 (filamin-, α-actinin-, and telethonin-binding protein of the Z-disk) (natural protein, human, UniProt Q9NP98 1-299, looked up)
chain: MPLSGTPAPNKKRKSSKLIMELTGGGQESSGLNLGKKISVPRDVMLEELSLLTNRGSKMFKLRQMRVEKFIYENHPDVFSDSSMDHFQKFLPTVGGQLGTAGQGFSYSKSNGRGGSQAGGSGSAGQYGSDQQHHLGSGSGAGGTGGPAGQAGRGGAAGTAGVGETGSGDQAGGEGKHITVFKTYISPWERAMGVDPQQKMELGIDLLAYGAKAELPKYKSFNRTAMPYGGYEKASKRMTFQMPKFDLGPLLSEPLVLYNQNLSNRPSFNRTPIPWLSSGEPVDYNVDIGIPLDGETEEL
Take B5: the “stoichiometry N” value in the experiment with α-actinin-2 [3] is 2 FATZ molecules per α-actinin-2 dimer.

B6: ECFP-tagged FATZ-1 (WT FATZ-1) (natural protein, human, UniProt Q9NP98 1-299, looked up)
chain: MPLSGTPAPNKKRKSSKLIMELTGGGQESSGLNLGKKISVPRDVMLEELSLLTNRGSKMFKLRQMRVEKFIYENHPDVFSDSSMDHFQKFLPTVGGQLGTAGQGFSYSKSNGRGGSQAGGSGSAGQYGSDQQHHLGSGSGAGGTGGPAGQAGRGGAAGTAGVGETGSGDQAGGEGKHITVFKTYISPWERAMGVDPQQKMELGIDLLAYGAKAELPKYKSFNRTAMPYGGYEKASKRMTFQMPKFDLGPLLSEPLVLYNQNLSNRPSFNRTPIPWLSSGEPVDYNVDIGIPLDGETEEL
With B6, the FRET ratio in [7] was found to be 0.085.
